# In PMC6695400, “Diversity of oligomerization in Drosophila semaphorins suggests a mechanism of functional fine-tuning” (Nature Communications, 2019):
# B1: mouse Sema3C (residues 22–711, furin sites mutated) with C-terminal TwinStrep tag (ligand, UniProt Q62181 22-711, looked up)
# chain: SSQPQARVYLTFDELRETKTSEYFSLSHQQLDYRILLMDEDQDRIYVGSKDHILSLNINNISQEPLSVFWPASTIKVEECKMAGKDPTHGCGNFVRVIQTFNRTHLYVCGSGAFSPVCTYLNRGRRSEDQVFMIDSKCESGKGRCSFNPNVNTVSVMINEELFSGMYIDFMGTDAAIFRSLTKRNAVRTDQHNSKWLSEPMFVDAHVIPDGTDPNDAKVYFFFKERLTDNNRSTKQIHSMIARICPNDTGGQRSLVNKWTTFLKARLVCSVTDEDGPETHFDELEDVFLLETDNPRTTLVYGIFTTSSSVFKGSAVCVYHLSDIQTVFNGPFAHKEGPNHQLISYQGRIPYPRPGTCPGGAFTPNMRTTKDFPDDVVTFIRNHPLMYNSIYPIHRRPLIVRIGTDYKYTKIAVDRVNAADGRYHVLFLGTDRGTVQKVVVLPTNSSASGELILEELEVFKNHVPITTMKISSKKQQLYVSSNEGVSQVSLHRCHIYGTACADCCLARDPYCAWDGHSCSRFYPTGKARSRAQDVRHGNPLTQCRGFNLKAYRNAAEIVQYGVRNNSTFLECAPKSPQASIKWLLQKDKDRRKEVKLNERIIATSQGLLIRSVQDSDQGLYHCIATENSFKQTIAKINFKVLDSEMVAVVTDKWSPWTWAGSVRALPFHPKDILGAFSHSEMQLINQYCKD
# notes: Semaphorin-3C, mouse, residues 22-711, furin cleavage sites mutated (R548, 552A); also called Sema3C-TwinStrep; source: HEK293T, transient co-transfection, secreted into conditioned medium; not shown: TwinStrep, C-terminal, kept
# B2: Drosophila melanogaster PlexB1–4-mVenus (receptor, UniProt Q9V4A7 35-730, looked up)
# chain: EELPAQALSPLNDIVAQFNLPSIPVQSTASSYGNRSIGNNIESVRDSQSKNYFTHMSFDFMHNVLFAGATNKILKLNENLRVLAEAVTGPLHDSPQCHAGGCPEDIETSLVNNFNKILVVSYAHDGILIACGSIRQGACEIYSLPRFPATPQFFAVPLAANDENASTYAFVGPARYAWKEEDILYVGTTFTNVGDYRHDVPAISSRRLDDLNYAEFSIQQSIINIDVKYRDHFLVDYIYGFNSSEYAYFIIVQKKSHLADEAGYVTRLARICITDPNYDSYTEITVQCTATENNVDYNIVRDAKVTPASHKLAQKMGIKKDDHVLVTVFSPSREISNQPESKSAMCIYSIKDIEDMFIENIHLCFNGTTKDRNLGYISGTINDGRCPIVGSLGNIYNFCSVGLKISGVSPITAHALFHFDNVSVTSVTATSTTDQQHSLAFLGTNMGVIKKVLLSGQSPGEYEEIVVDAGNRILPNTMMSPKKDFLYVLSQRKITKLRIEHCSVYTNCSACLESRDPFCGWCSLEKRCTVRSTCQRDTSASRWLSLGSGQQCIEFESIIPEKIPISELSHLHLIIRTLPEPFNAKYRCVFGNSTPIDAEILENGLGCATPPLDERPLIPTNTDHILVPLSVRSSETNKDFVSRNFAFFDCSHHGNCQECLQSSWGCNWCIFDNKCVHKSLQCRNIENAVSTVGHCP
# notes: Plexin B, Drosophila melanogaster, domains 1-4 of the ectodomain, residues 35E-730P; source: High Five cells (Trichoplusia ni), baculovirus (pBacPAK9, GP64 signal peptide), purified (HisTrap, SEC); not shown: mVenus, C-terminal, kept
# B3: Drosophila melanogaster Sema2a1–3 (sema, PSI and Ig-like domains) (domain or fragment, UniProt Q24323 27-671, looked up)
# chain: YENTWNFYYERPCCTGNDQGNNNYGKHGADHVREFNCGKLYYRTFHMNEDRDTLYVGAMDRVFRVNLQNISSSNCNRDVINLEPTRDDVVSCVSKGKSQIFDCKNHVRVIQSMDQGDRLYVCGTNAHNPKDYVIYANLTHLPRSEYVIGVGLGIAKCPYDPLDNSTAIYVENGNPGGLPGLYSGTNAEFTKADTVIFRTDLYNTSAKRLEYKFKRTLKYDSKWLDKPNFVGSFDIGEYVYFFFRETAVEYINCGKAVYSRIARVCKKDVGGKNLLAHNWATYLKARLNCSISGEFPFYFNEIQSVYQLPSDKSRFFATFTTSTNGLIGSAVCSFHINEIQAAFNGKFKEQSSSNSAWLPVLNSRVPEPRPGTCVNDTSNLPDTVLNFIRSHPLMDKAVNHEHNNPVYYKRDLVFTKLVVDKIRIDILNQEYIVYYVGTNLGRIYKIVQYYRNGESLSKLLDIFEVAPNEAIQVMEISQTRKSLYIGTDHRIKQIDLAMCNRRYDNCFRCVRDPYCGWDKEANTCRPYELDLLQDVANETSDICDSSVLKKKIVVTYGQSVHLGCFVKIPEVLKNEQVTWYHHSKDKGRYEIRYSPTKYIETTERGLVVVSVNEADGGRYDCHLGGSLLCSYNITVDAHRCTPPNK
# notes: Semaphorin-2a, Drosophila melanogaster, sema-PSI-Ig, residues 27Y-671K; Disulfide-linked dimer in the crystal; source: HEK293S-GnTI- or HEK293T with kifunensine, transient transfection, purified (HisTrap, SEC)
# Columns and labels:
# [1] = molecular target: T1, mouse Sema3A (residues 26–730, furin sites mutated) with C-terminal 3C-Avi-His6 tag (mouse, UniProt O08665 26-730, R551A (printed: R551, 555A) | R555A (printed: R551, 555A)); assay: pull-down; HEK293T co-transfected with a His6-tagged and a TwinStrep-tagged semaphorin; conditioned medium 5 days post transfection; two-step affinity chromatography (HisTrap, then StrepTactin); western blot and SDS-PAGE of flow-through and eluate; settings: partners not purified
# T1 construct: Semaphorin-3A, mouse, residues 26-730, furin cleavage sites mutated (R551, 555A); also called Sema3A-His6; source: HEK293T, transient co-transfection, secreted into conditioned medium; not shown: His6, C-terminal, kept
# T1 sequence (looked up): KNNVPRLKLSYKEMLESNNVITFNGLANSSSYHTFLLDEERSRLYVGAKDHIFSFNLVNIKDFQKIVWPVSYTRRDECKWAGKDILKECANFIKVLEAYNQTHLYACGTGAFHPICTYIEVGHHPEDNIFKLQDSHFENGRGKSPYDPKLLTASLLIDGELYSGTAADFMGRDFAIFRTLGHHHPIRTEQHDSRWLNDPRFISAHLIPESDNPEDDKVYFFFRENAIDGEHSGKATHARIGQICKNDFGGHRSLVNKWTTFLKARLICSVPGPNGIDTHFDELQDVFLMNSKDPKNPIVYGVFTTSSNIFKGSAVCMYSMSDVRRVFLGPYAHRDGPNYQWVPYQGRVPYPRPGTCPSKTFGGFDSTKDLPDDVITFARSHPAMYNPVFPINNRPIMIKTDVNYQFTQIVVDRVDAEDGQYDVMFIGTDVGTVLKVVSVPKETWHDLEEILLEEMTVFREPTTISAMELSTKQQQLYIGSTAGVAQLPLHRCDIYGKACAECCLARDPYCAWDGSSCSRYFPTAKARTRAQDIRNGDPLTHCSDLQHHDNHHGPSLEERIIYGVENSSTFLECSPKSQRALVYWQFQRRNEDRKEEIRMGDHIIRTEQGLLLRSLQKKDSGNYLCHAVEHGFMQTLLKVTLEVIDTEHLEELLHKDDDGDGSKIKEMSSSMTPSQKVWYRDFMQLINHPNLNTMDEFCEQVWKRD
# [2] = molecular target: T2, Drosophila melanogaster full-length secreted semaphorin-2a (Sema2a_(full)) (Drosophila melanogaster, UniProt Q24323 26-724); assay: MST; plexin-mVenus kept constant, unlabelled semaphorin titrated (1:1 dilution series); 25 °C; 15 mM HEPES pH 7.4, 150 mM NaCl, 2 mM CaCl2, 0.005% Tween-20; 1 h incubation at room temperature; apparent Kd; settings: both partners purified
# T2 construct: Semaphorin-2a, Drosophila melanogaster, residues 26D-724V; Disulfide-linked dimer in solution; source: HEK293T (37 °C), transient transfection, purified (HisTrap, SEC)
# T2 sequence (looked up): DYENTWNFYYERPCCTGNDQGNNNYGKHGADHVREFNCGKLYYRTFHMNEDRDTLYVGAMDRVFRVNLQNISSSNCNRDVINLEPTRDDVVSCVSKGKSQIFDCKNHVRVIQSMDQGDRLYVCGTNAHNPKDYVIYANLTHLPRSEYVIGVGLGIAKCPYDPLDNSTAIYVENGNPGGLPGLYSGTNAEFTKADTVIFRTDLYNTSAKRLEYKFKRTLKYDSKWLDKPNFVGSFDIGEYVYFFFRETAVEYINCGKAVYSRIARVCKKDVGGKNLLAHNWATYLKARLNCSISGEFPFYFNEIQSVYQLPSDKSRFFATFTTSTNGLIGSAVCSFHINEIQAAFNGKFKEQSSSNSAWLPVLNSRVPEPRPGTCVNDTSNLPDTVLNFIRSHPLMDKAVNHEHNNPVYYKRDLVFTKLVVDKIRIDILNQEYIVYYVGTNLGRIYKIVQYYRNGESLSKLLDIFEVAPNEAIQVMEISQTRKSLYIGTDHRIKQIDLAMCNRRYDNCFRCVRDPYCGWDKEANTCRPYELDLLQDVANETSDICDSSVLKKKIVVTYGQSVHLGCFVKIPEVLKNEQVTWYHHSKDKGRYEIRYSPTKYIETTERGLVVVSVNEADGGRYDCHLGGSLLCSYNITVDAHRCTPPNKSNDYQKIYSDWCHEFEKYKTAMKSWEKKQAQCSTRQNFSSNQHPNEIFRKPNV
# [3] = molecular target: the molecule itself; assay: crystal structure; sitting-drop vapour diffusion at 20 °C; data at 100 K
binder,measurement,setting,value
B1,stoichiometry N,[1],1
B2,Kd,[2],25 nM
B3,binding result,[3],binds
